The data set in a line: yeast display, Sf9 membrane polyspecificity reagent, FACS + sequencing; frameworks hold sequencing errors. The gist of the method: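 Nanobodies from a synthetic yeast display library (Saccharomyces cerevisiae BJ5465), induced 36–48 hours with galactose, were stained 1 hour at 4 °C with 10% biotinylated, detergent-solubilized Sf9 membrane reagent, enriched on streptavidin microbeads, then FACS-sorted. Anti-HA (expression) and streptavidin (reagent binding) fluorescence set low and high (top ~1%) gates. Polyreactivity labels come from the gate of origin. Genes were colony-PCR amplified, MiSeq 2 × 250 sequenced and filtered by CDR length.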
On to “QVQLQESGGGLAQAGGSLRLICAASGTLFPADSMGWYRQAPGKERELVAGITSGANTYYADSVNGRFTISHDNAKQTVYLQMDSLIPEDIAVYYCAAPGSSTYDLESWGQGTQVNVSS”, for which the “polyreactivity (PSR sort gate)” value is “high polyreactivity”.
The value for “QVQLQESGGGLAQAGGSLRLSCAASGNIFDADIMGWYRQAPGKERELVGSITDGGSTNYVDSVKGRFTISRDNAKNTVHLQMNSLKPEDTAVYYCAAIAYPDIPTYFDYDSDCFNWGHGTQVTVSS” was “high polyreactivity”; that for “QVQLQESGGGLAQAGGSQRLSCAASGTIFAADSMGWYRQAPGKERELVAGITSGANTYYADSVKGRYTISHDNAKKTVYLQMDSLIPEAIAVYYCAAPGSTTYDLEYWGQGTQVTVSS” was “high polyreactivity”.
Regarding “QVQLQESGGGLEQAGGSLRLSCAASGYIFPTAIKGWYRQAPGKERKLVAAINPGSNTYYADSVKGRFTFSRDNANNSVYLQMNSLKPEDAAVYYCGVSIWLVGTLDYWGQGTQVTVSS”, the “polyreactivity (PSR sort gate)” value was “low polyreactivity”.
With “QVQLQESGGGLEQAGGSLRLSCAASGYITDIGTMGWYRQAPGKEREFVATIVVGSTTNYADSVKGRFTISRDNAKNTVYLQPESGRYRGVLLRGWLLAVGNFTYWGQGTQETVSS”, the “polyreactivity (PSR sort gate)” value was “low polyreactivity”.
In the case of “QVQLQESGGGLEQAGGSLRMSCAANGNIFDADIVGRYRQAPGKKRELVASITDGGITNYADSVKGRFTISRDNAKYTVYLQMNSQNPEDTAVYYCAAIAYPDIPTYFDYDSDFFYWGQGTQVTVSS”, the “polyreactivity (PSR sort gate)” value is reported as “high polyreactivity”.
For “QVQLQESGGGLEQAGGSLRMSCAANGNIFDSDIVGRYRQAPGKKRELVASITDGGITNYADSVKGRFTISRDNAKYTVYLQMNSQNPVDTAVYYCAAIAYPDIPTYFDYDSDFFYWGQGTQVTVSS”, the “polyreactivity (PSR sort gate)” value is on record as “high polyreactivity”.
In the case of “QVQLQESGGGLLQAGGSLRLSCAASGNFFDADIMGWYRQAPGKERELVASITDGGSTNYADRVKGRFTISRGNTKNTVYLLMNCLKPDDTSVYYCAAIAYPDIPTYFDYNSDYFYGGQGTQVTVSS”, the “polyreactivity (PSR sort gate)” value is recorded as “high polyreactivity”.
On to “QVQLQESGGGLLQAGGSLRLSCAASGNIFLSIFMGWYRQAPGKEREFVAGIGSGTNTNYADSVKGRFTISRDNAKNTVYLQMNSLKPEDTAGYYSAAGRFGLYYHGYWGLGTQVTVSS”, for which the “polyreactivity (PSR sort gate)” value was “high polyreactivity”.
On to “QVQLQESGGGLMQAGGSLRLSCTASGTISDVRVMGWYRQAPGRERELVATISYVTITYYADSVKGRFTISRDSEKHRVSADDEPETGRYRGVLLRYYWGLGTQVTVSS”, for which the “polyreactivity (PSR sort gate)” value is listed as “low polyreactivity”.
On to “QVQLQESGGGLMQAGGSQRLSCAASGSISYYSDMCWYRQAPGKEREFVAGIGYGTTTNYADSVKGRFTTSRDNAKNTVYLQMISMKPEDTAVYYCAAYQGNGYEFYYWGQGTQVTVRS”, for which the “polyreactivity (PSR sort gate)” value is given as “low polyreactivity”.
In the case of “QVQLQESGGGLMQAGGSQRLSCAESGSISYYSDMGWYRQAPGKEREFVAGIGYGTTTNYADSVKGRFTTSRDNAKNTVYLQMISMKPEDTAVYSCAAYQGNGYEFYYWGQGTQVTVRS”, the “polyreactivity (PSR sort gate)” value is listed as “low polyreactivity”.
As for “QVQLQESGGGLVEAGGTLRLSCAASGSYSADEDMGWYRQAQGKEREFVAGISVGGNTNYADSVKGRFTSSRENAKNSLFLQINSLKPEDTAVYYCAVLPDVYDALDYWAQGTQVTVSS”, the “polyreactivity (PSR sort gate)” value is “high polyreactivity”.
With “QVQLQESGGGLVKAGGSLRLSCAASGNISNHNDMGWYRQAPGKEREFVAGITAGGITNYADSVKGRFTISRDNAKNTVYLLMKRLKPEDTAVYYCAAYPDYAKSYGFWGQGTQATVSS”, the “polyreactivity (PSR sort gate)” value is “low polyreactivity”.
On to “QVQLQESGGGLVKAGGSLRLSCAASGNISPRDAMGWYRQAPGEERDLVASNAYSAITYYADGVKGRYTISRDNAKNTVYLQMNSLKPEDTVVYYCAVYQFTYPVFPAYWGQGTQVTVSS”, for which the “polyreactivity (PSR sort gate)” value is given as “low polyreactivity”.
The same measure for “QVQLQESGGGLVLAGGSLRLSCAASGSISAQAYMGWDRQAPGKEREHVAGINYGDNTNYADSVKGRFTISRDNEHSVSADEQPETGRYRGVLLRGFLELFYYYIYWGQGTQVTVSS”: “high polyreactivity”.
Take “QVQLQESGGGLVLAGGSLRLSCAESGYISWSFTMGWYRTAPGKERELVAGITYGGITYYADSVKGRFTISRDNAKNTVYLQMNSLKPEDTAVYYCNARKHGQGRNGYGSWGQGTQVTVSS”: the “polyreactivity (PSR sort gate)” value is given as “high polyreactivity”.
The value for “QVQLQESGGGLVQACGSLRLSCAASGTITVLYKMGWFRQAPGKEREFVASINYGTSTYYADSVKGRFTVSRDSAKNTVYLQMNSLKPEDTAVYYCAAAYRWQDVYRYWGQGTQVTVSS” was “low polyreactivity”; that for “QVQLQESGGGLVQAGASLRLSCAASGSIYDDTYMGSYRQAPGKERELVATIDSGSTTNYADSVKGRITISRDNEKNTVYLQMNSLKPEDSAVYYCAAADSHIDYFDYWGQGTQVTVSS” was “low polyreactivity”.
As to “QVQLQESGGGLVQAGASQRLSCAASGYIFYFQYMGWYRQAPGKEREFVAAISDGANTNYADSVKGRFTISRDNAKNTEYLQMNSLKPEDTAVYYCAVYADENYYYIYWGQGTQVTVSS”, the “polyreactivity (PSR sort gate)” value is “low polyreactivity”.
For the sequence “QVQLQESGGGLVQAGDSLRLSCAASGTISGRDSMGWYRQAPGKEREFVASIDFGTNTYYADSVKGRFTISRDNAKNTVYLQMNRLTAVYYCAAPDSQYSYWGQGTQVTESS”, the “polyreactivity (PSR sort gate)” value is “high polyreactivity”.
“QVQLQESGGGLVQAGGDLRLSCAASGNIFRDYIMGWNRQAPGKEREFVAGIDRGANTNYADSVKGRFTISRDNAKNTVYLQMNSLKPEDTAVYYCAVHTDIVPDFIYWGQGTQVTVSS”: the “polyreactivity (PSR sort gate)” value is reported as “low polyreactivity”.
On to “QVQLQESGGGLVQAGGDLRLSCAASGNIFRDYIMGWYREAPGKEREFVAGIDRGANPNYADSVKGRFTISRDNAKNTVYLQMNSLKPEDTAVYYCAVHTAIVADFIYWGQGTQVTVSS”, for which the “polyreactivity (PSR sort gate)” value is listed as “low polyreactivity”.
Consider “QVQLQESGGGLVQAGGILRLSCASCGNIIPSAVMVWYRQALGKEREFVATINSGSNTYYADSVKGRFTISRDNAKITVYQQMNILKLEDTAVYYCAAYFKLPAWHTYWGQGTQVTVSS”, for which the “polyreactivity (PSR sort gate)” value is “low polyreactivity”.
“QVQLQESGGGLVQAGGSLCLSCAASGTIFFDGDMGWYRQAPGKEREFVAAINPGGSAYYADSVKGRLPLAAITHTVYLQMNSLKPEDTAVYYCAAKLFDVYGYYYWGQGTHVTVSS”: the “polyreactivity (PSR sort gate)” value is reported as “low polyreactivity”.
Turning to “QVQLQESGGGLVQAGGSLLLSCAASGTICDSGLMGWYRQAPGKERELVDVISSGGITNYADSVKGRYTISRDNAKNTVYMQMNSLKPEDTAVYWGQGPQVTVSS”, the “polyreactivity (PSR sort gate)” value was “low polyreactivity”.
For “QVQLQESGGGLVQAGGSLRLGCAASGNISDAGYMGWYRQAPGKEREFVAAIAAGSNTNYADSVKGRFTISRDNAKNTVYLQMNSLKPEDTAVFYCAVASYARVQYQYWGQGTQVTVNS”, the “polyreactivity (PSR sort gate)” value is “low polyreactivity”.
For “QVQLQESGGGLVQAGGSLRLGCAASGYISGFNEMGWYRQAPGKERELDAAITNGGISNYADSVKGRFTISRDNAKNTVYLQMNSLKPEDTAMYYCAAGDFDQSNHAYWGQDTQVTVSS”, the “polyreactivity (PSR sort gate)” value is listed as “high polyreactivity”.
For “QVQLQESGGGLVQAGGSLRLRCAASRNNSGSSDLGWYHQAPGKEREFVASITSGGTTYYADSVKGRFTISRDNAKNTVYLQMNSLKPEDTAVYYCAVGDPADAEFGYWGQGTQVTVSS”, the “polyreactivity (PSR sort gate)” value is given as “low polyreactivity”.
Turning to “QVQLQESGGGLVQAGGSLRLSCAARGNNSSYYRMGWYRQAPGQEREFVATIAVGGTTNYADSVKGRFTISRDNEKTTLYLQRNSLKPEDTAVCFCAANSTQYTWFDYWGQGTQVPVSS”, the “polyreactivity (PSR sort gate)” value was “low polyreactivity”.
In the case of “QVQLQESGGGLVQAGGSLRLSCAASGNIFLGGDKGWYRQAPGKEREFVAAISDGTSTNYADSVKGRFTISRDNAKNTVYLQMNSLKPEDTAVYYCAAQYRYQRYSYAMEYWGQGTQVTVSS”, the “polyreactivity (PSR sort gate)” value is “high polyreactivity”.
Consider “QVQLQESGGGLVQAGGSLRLSCAASGNISSYYRMGWYRQAPGKEREFVATIAVGGTTNYADSVKGRFTISRDNAINTVFLQRNSLNTEDTAVCFCAANSTQYTWFDYWGQGTQVPVSS”, for which the “polyreactivity (PSR sort gate)” value was “low polyreactivity”.
As for “QVQLQESGGGLVQAGGSLRLSCAASGNIVDADIMGWYRQAPGKERELVASITDGGSTNYADSEKGRFTICRDNAKNTVYLQMNSVKPEDTAVYYCAAMAYPDIPTSFDYDSEYFYWGQGTQVKVSS”, the “polyreactivity (PSR sort gate)” value is recorded as “low polyreactivity”.
Take “QVQLQESGGGLVQAGGSLRLSCAASGPISRRSTMGWNRQAPGKERELVTAITRGTNTNYADSVKGRFTISRDNAKNTEYLQMNSLKPVDTAVYYCAAYGVLKPSRGDAVFHRYWGQGTQVTVSS”: the “polyreactivity (PSR sort gate)” value is “low polyreactivity”.
Consider “QVQLQESGGGLVQAGGSLRLSCAASGPISRRSTMGWYRQAPGKERELVTAITRGTNTNYADSVKGRFTISRDNAKNTEYLQMNSLKPVDTAVYYCAAYGVLNPSRGDAVFHRYWGQGTQVSVSS”, for which the “polyreactivity (PSR sort gate)” value is on record as “low polyreactivity”.
With “QVQLQESGGGLVQAGGSLRLSCAASGSIFDGFNMGWNRQAPGKEREFVAAISYGASTYYADSVKGRFTVSRDNAKNCVYLQMNSLKPEDSAVYYCAVYDELYQVLVYWGRGTQVTVSS”, the “polyreactivity (PSR sort gate)” value is on record as “low polyreactivity”.
For the sequence “QVQLQESGGGLVQAGGSLRLSCAASGSIFDGFNMGWYRQAPGKEREFVAAISYGASTYYADSVKGRFTVSRDNAKNSVYLQMNSLKPEATAVYYCAVYDELYHVLVYWGRGTQVTVSS”, the “polyreactivity (PSR sort gate)” value was “low polyreactivity”.
The value for “QVQLQESGGGLVQAGGSLRLSCAASGSIFDYVSMGWYRQAPGEERELVVTITLGSNTYYADSVKGRFTISSDIAKNTVYLQMNSLNPEDTAVYYCAASALWGYVYPYWGLGTQVTVSS” was “high polyreactivity”; that for “QVQLQESGGGLVQAGGSLRLSCAASGSIFDYVSMGWYRQAPREERELVVTITLGSNTYYADSVKGRFTISSDIGKNTVYLQMNSLNPEDTAVYYCAASALWGYVYPYWGLGTQVTVSS” was “high polyreactivity”.
On to “QVQLQESGGGLVQAGGSLRLSCAASGSIFEELDMGWYRQAPGKEREFVAANGTGSTTYYADSVKGRFTISRDNAKNTVYLQMNSLKPEVTAVYYCAVTYSVYLPFRYWGQGTQVTVSS”, for which the “polyreactivity (PSR sort gate)” value is on record as “high polyreactivity”.
For the sequence “QVQLQESGGGLVQAGGSLRLSCAASGSIFKVVDMGLYRQAPGKEREFVATNGEGGNTYSADSVKGRFTISRDNAKNTVYRQMNSLKPEATAVYFYAVVLGTSYRYTYWGQGTQVTVSS”, the “polyreactivity (PSR sort gate)” value was “low polyreactivity”.

The values above are taken from the nanobody polyreactivity screen of Harvey et al. (2022).
